Source: patent US20250002574A1 (SUNSHINE LAKE PHARMA, published 2025)

Columns and labels:
[1] = target: T1, recombinant IL-6 (Sinobiological-10395-HNAE) (UniProt P05231 30-212); experiment: ELISA, cytokine coated
[2] = target: T2, recombinant OSM (Genscript-z03132) (UniProt P13725 26-221, limits assumed); experiment: ELISA, cytokine coated
T2 sequence (looked up): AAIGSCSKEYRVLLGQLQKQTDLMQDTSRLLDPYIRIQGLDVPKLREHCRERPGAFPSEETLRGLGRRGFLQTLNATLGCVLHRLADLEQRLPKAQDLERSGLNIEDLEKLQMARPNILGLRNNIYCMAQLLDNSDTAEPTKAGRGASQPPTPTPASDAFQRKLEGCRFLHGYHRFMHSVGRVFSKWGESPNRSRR

[3] = target: T3, recombinant CLC (R&D systems, 962-CL-050) (UniProt Q9UBD9 28-225); experiment: ELISA, cytokine coated
T3 sequence (looked up): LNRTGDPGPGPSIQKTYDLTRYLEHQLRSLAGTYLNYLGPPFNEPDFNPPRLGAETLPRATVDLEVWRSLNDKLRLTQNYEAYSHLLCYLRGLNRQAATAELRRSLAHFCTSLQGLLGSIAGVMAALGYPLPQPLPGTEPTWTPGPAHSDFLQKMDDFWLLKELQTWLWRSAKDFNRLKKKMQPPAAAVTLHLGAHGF

[4] = target: T4, recombinant IL-27 (R&D systems, 2526-IL-010) (UniProt Q8NEV9 29-243; Q14213 21-229); experiment: ELISA, cytokine coated
T4 construct: the bought product may be a single-chain fusion
T4 sequence (looked up) 1: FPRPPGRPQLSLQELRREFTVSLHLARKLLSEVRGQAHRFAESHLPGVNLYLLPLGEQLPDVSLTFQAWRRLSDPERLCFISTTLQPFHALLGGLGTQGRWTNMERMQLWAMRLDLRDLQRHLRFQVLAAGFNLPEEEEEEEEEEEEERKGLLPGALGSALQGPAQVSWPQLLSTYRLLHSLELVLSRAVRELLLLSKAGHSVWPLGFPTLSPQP
T4 sequence (looked up) 2: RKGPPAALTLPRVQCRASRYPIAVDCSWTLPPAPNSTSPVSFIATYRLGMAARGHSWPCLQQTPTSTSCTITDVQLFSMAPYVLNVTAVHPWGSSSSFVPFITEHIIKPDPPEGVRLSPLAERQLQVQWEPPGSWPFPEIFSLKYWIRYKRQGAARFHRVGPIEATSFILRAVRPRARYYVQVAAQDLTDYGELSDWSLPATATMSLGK

[5] = target: T5, recombinant CT-1 (R&D systems, 612-CD-010) (UniProt Q16619 2-201); experiment: ELISA, cytokine coated
T5 sequence (looked up): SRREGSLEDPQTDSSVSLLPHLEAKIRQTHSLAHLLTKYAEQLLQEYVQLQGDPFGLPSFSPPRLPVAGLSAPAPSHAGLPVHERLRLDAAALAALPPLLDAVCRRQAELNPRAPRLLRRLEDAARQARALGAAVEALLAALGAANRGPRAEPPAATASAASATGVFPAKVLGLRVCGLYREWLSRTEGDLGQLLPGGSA

[6] = target: T6, recombinant CNTF (R&D systems, 257-NT-010) (UniProt P26441 2-200); experiment: ELISA, cytokine coated
T6 sequence (looked up): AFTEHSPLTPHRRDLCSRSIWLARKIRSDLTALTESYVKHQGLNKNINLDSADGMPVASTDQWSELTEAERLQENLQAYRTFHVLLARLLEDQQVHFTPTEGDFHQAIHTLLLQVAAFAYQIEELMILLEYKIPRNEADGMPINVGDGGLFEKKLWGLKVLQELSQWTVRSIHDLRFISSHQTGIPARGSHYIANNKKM

[7] = target: T7, recombinant LIF (Peprotech, 300-05) (UniProt P15018 23-202); experiment: ELISA, cytokine coated
T7 sequence (P15018 23-202 limits assumed): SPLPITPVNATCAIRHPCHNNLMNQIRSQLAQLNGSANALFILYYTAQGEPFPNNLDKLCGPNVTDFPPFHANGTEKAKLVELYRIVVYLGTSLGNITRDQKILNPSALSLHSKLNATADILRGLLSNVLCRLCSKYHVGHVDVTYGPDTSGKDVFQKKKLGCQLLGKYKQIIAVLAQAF

[8] = target: T8, recombinant IL-31 (Peprotech, 200-31) (UniProt Q6EBC2 24-164); experiment: ELISA, cytokine coated
T8 sequence (looked up): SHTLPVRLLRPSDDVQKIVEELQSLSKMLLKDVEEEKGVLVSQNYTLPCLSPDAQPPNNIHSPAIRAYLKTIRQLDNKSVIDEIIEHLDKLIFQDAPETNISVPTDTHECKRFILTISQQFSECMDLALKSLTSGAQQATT

[9] = target: T9, recombinant human protein antigen hu-IL-11-His tag (human, UniProt P20809 22-199); experiment: BLI (Octet QKe), IL-11 (His tag) on Ni-NTA sensor, antibody as analyte
T9 construct: also called IL-11-His protein; not shown: His tag
T9 sequence (looked up): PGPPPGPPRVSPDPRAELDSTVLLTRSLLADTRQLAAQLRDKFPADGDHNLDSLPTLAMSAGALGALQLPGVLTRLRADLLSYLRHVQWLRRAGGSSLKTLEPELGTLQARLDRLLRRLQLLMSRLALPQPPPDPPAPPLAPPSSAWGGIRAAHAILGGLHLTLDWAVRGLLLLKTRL
Experimental: The analytes were diluted in 7 concentration gradients, the binding time was 60 s and the dissociation time was 1000 s. The buffer was 20 mM PBS, 0.15M NaCl, 0.1% BSA, 0.05% Tween 20, pH 7.4. […] In this example, Pall ForteBio (Octet QKe) instrument was used to determine the affinity of antibodies for antigens.

[10] = target: T1, recombinant IL-6 …; experiment: ELISA, cytokine coated; remark: listed apart in the source
[11] = target: T2, recombinant OSM (Genscript-z03132); experiment: ELISA, cytokine coated; remark: listed apart in the source
[12] = target: T3, recombinant CLC (R&D systems, …); experiment: ELISA, cytokine coated; remark: listed apart in the source
[13] = target: T4, recombinant IL-27 (R&D systems, …); experiment: ELISA, cytokine coated; remark: listed apart in the source
[14] = target: T5, recombinant CT-1 (R&D systems, …); experiment: ELISA, cytokine coated; remark: listed apart in the source
[15] = target: T6, recombinant CNTF (R&D systems, …); experiment: ELISA, cytokine coated; remark: listed apart in the source
[16] = target: T7, recombinant LIF (Peprotech, 300-05); experiment: ELISA, cytokine coated; remark: listed apart in the source
[17] = target: T10, recombinant IL-11 (LSBio, LS-G132887-10) (UniProt P20809 22-199); experiment: ELISA, cytokine coated
T10 sequence (looked up): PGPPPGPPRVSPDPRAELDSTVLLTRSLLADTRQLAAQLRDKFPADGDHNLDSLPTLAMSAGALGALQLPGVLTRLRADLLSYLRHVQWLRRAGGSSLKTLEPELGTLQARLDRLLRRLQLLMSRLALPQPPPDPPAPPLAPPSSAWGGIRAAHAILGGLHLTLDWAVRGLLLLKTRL

[18] = target: T8, recombinant IL-31 (Peprotech, 200-31); experiment: ELISA, cytokine coated; remark: listed apart in the source
IL-11-Fc protein = target: T11, IL-11-Fc protein (UniProt P20809 22-199, limits assumed); experiment: flow cytometry competition: IL-11-Fc plus antibody on membrane-IL-11R CHO cells
T11 construct: also called IL-11 recombinant protein with Fc tag; not shown: Fc tag
T11 sequence (looked up): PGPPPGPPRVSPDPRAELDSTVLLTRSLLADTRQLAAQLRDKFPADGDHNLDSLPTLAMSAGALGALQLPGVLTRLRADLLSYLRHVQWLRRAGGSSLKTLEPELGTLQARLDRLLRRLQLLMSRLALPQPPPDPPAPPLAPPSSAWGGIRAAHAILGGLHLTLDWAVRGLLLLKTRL
From the text: The secondary antibody (Goat-anti-Fc-FITC) (Abcam, ab98529) conjugated with FITC fluorophore was used for detection.

B1: 3-6A4 (recombinant, expressed in CHO, Example 6) (antibody, human IgG1, kappa, V domains shown)
VH: QIQLVQSGPELKKPGETVKISCKASGYTFTTNGINWVKQAAGKGLKWMGWINTNTGEPTNAEELKGRFAFSLETSASTAYLQINNLKNEDAAIYFCAREGAFGLDYWGQGTSVTVSS
VL: SIVMTQSPKFLLVSAGDRVIITCKASQSVSNDVVWYQQKPGQSPKLLIYYGSHRNTGVPTRFTGSGYGTDFTFTISTVQAEDLAVYFCQQDFFSPWTFGGGTKLEIKR
binding result [1]: no binding
binding result [2]: no binding
binding result [3]: no binding
binding result [4]: no binding
binding result [5]: no binding
binding result [6]: no binding
binding result [7]: no binding
binding result [8]: no binding
Kd [9]: 0.0393 nM
koff [9]: 4.16e-05 s⁻¹
kon [9]: 1.06e+06 M⁻¹ s⁻¹
OD450 nm [10]: 0.039 OD450
OD450 nm [11]: 0.102 OD450
OD450 nm [12]: 0.042 OD450
OD450 nm [13]: 0.035 OD450
OD450 nm [14]: 0.041 OD450
OD450 nm [15]: 0.064 OD450
OD450 nm [16]: 0.084 OD450
OD450 nm [17]: 1.88 OD450
OD450 nm [18]: 0.088 OD450
IC50 (IL-11-Fc protein): ~7 µg/mL

B2: 5-20E11-5F2 (recombinant, expressed in CHO, Example 6) (antibody, human IgG1, kappa, V domains shown)
VH: QVQLQQSGAELVRPGTSAKISCKASDYTFTNYWLGWLKQRPGHGLEWIGHIYPGGGYTNYNEKFKGKATLTADTSSSTAYMQLSSLTSEDSAVYFCARVRSGNDALDFWGQGTSVTVSS
VL: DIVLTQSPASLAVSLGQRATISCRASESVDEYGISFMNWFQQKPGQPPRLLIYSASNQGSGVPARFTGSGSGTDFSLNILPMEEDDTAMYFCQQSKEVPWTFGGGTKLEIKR
binding result [1]: no binding
binding result [2]: no binding
binding result [3]: no binding
binding result [4]: no binding
binding result [5]: no binding
binding result [6]: no binding
binding result [7]: no binding
binding result [8]: no binding
Kd [9]: 0.069 nM
koff [9]: 1.21e-05 s⁻¹
kon [9]: 175000 M⁻¹ s⁻¹
OD450 nm [10]: 0.049 OD450
OD450 nm [11]: 0.045 OD450
OD450 nm [12]: 0.033 OD450
OD450 nm [13]: 0.048 OD450
OD450 nm [14]: 0.034 OD450
OD450 nm [15]: 0.036 OD450
OD450 nm [16]: 0.037 OD450
OD450 nm [17]: 1.93 OD450
OD450 nm [18]: 0.036 OD450
IC50 (IL-11-Fc protein): ~21 µg/mL
